Read-outs that look alike come from different tables or passages of the source.
Tests used:
Experiment in all cases: cryo-EM structure
[1] = biological target: full-length wild-type calcium-sensing receptor from Gallus gallus (ggCaSR) (Gallus gallus)
[2] = biological target: full-length wild-type calcium-sensing receptor from Gallus gallus (ggCaSR) (Gallus gallus); remark: listed apart in the source
[3] = biological target: full-length wild-type calcium-sensing receptor from Gallus gallus (ggCaSR) (Gallus gallus); remark: listed apart in the source
[4] = biological target: full-length wild-type calcium-sensing receptor from Gallus gallus (ggCaSR) (Gallus gallus); remark: listed apart in the source

Measured: stoichiometry N

full-length wild-type calcium-sensing receptor from Gallus gallus (ggCaSR)
2: all assays above
